Source: US20170306033A1 (Amgen, published 2017)

T1: human PAC1 receptor (human, UniProt P41586 21-468)
T1 sequence: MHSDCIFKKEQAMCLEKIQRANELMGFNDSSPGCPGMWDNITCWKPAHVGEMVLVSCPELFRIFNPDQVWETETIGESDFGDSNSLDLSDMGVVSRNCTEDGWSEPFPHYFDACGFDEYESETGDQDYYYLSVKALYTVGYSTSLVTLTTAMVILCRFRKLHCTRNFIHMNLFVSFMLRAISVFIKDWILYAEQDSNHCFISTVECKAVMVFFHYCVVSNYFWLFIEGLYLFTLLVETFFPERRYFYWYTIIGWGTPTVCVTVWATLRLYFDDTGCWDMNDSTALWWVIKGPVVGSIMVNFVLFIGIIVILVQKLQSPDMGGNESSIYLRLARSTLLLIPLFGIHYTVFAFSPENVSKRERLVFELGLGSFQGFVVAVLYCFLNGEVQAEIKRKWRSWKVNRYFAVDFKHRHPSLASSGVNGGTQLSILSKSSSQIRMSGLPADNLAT


How the values were obtained:
human CGRP receptor = human CGRP receptor (human, UniProt Q16602 23-461; O60894 27-148); test: cell-based or functional assay
human PAC1 receptor = biological target: T1, human PAC1 receptor; test: cell-based or functional assay

human CGRP receptor, sequence (Q16602 23-461 limits assumed, chain 1 of 2): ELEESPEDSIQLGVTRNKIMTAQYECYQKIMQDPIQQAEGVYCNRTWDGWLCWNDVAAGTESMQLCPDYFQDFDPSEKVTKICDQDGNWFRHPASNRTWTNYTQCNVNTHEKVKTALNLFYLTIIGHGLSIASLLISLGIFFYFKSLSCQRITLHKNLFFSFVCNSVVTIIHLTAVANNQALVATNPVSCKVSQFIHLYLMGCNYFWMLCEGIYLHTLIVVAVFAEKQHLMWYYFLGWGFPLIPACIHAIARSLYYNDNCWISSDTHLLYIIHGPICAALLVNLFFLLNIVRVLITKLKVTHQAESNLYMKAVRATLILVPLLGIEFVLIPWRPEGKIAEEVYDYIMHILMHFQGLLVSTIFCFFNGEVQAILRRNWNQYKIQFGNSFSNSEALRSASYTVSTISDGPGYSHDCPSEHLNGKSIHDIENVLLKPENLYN
human CGRP receptor, sequence (O60894 27-148 limits assumed, chain 2 of 2): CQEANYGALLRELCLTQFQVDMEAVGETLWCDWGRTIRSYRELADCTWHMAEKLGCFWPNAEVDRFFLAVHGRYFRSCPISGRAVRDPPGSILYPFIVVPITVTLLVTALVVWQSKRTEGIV

| Binder | % inhibition of human CGRPR (human CGRP receptor) [%] | % inhibition of human PAC1 (human PAC1 receptor) [%] |
| --- | --- | --- |
| iPS:327737 (bispecific antibody, human IgG1, kappa, lambda, N297G) light 1: DIQLTQSPSFLSASVGDRVTITCRASQSIGRSLHWYQQKPGKAPKLLIKYASQSLSGVPSRFSGSGSGTEFTLTISSLQPEDFATYYCHQSSRLPFTFGEGTKVDIKRTVAAPSVFIFPPSDEQLKSGTASVVCLLNNFYPREAKVQWKVDNALQSGNSQESVTEQDSKDSTYSLESTLTLSKADYEKHKVYACEVTHQGLSSPVTKSFNRGEC heavy 1: not shown light 2: QSVLTQPPSVSAAPGQKVTISCSGSSSNIGNNYVSWYQQLPGTAPKLLIYDNNKRPSGIPDRFSGSKSGTSATLGITGLQTGDEADYYCGTWDSRLSAVVFGKGTKLTVLGQPKANPTVTLFPPSSEELQANKATLVCLISDFYPGAVTVAWKADGSPVKAGVETTKPSKQSNNKYAAKSYLSLTPEQWKSHRSYSCQVTHEGSTVEKTVAPTECS heavy 2: QVQLVESGGGVVQPGRSLRLSCAASGFTFSSFGMHWVRQAPGKELEWVAVISFDGSIKYSVDSVKGRFTISRDNSKNTLFLQMNSLRAEDTAVYYCARDRLNYYESSGYYHYKYYGMAVWGQGTTVTVSSASTKGPSVFPLAPSSKSTSGGTAALGCLVKDYFPEPVTVSWNSGALTSGVHTFPAVLQSSGLYSLESVVTVPSSSLGTQTYICNVNHKPSNTKVDKKVEPKSCDKTHTCPPCPAPELLGGPSVFLFPPKPKDTLMISRTPEVTCVVVDVSHEDPEVKFNWYVDGVEVHNAKTKPCEEQYGSTYRCVSVLTVLHQDWLNGKEYKCKVSNKALPAPIEKTISKAKGQPREPQVYTLPPSRKEMTKNQVSLTCLVKGFYPSDIAVEWESNGQPENNYKTTPPVLKSDGSFFLYSKLTVDKSRWQQGNVFSCSVMHEALHNHYTQKSLSLSPGK | 82 | 54 |
| iPS:327739 (bispecific antibody, human IgG1, kappa, lambda, N297G) light 1: not shown heavy 1: not shown light 2: QSVLTQPPSVSAAPGQKVTISCSGSSSNIGNNYVSWYQQLPGTAPKLLIYDNNKRPSGIPDRFSGSKSGTSATLGITGLQTGDEADYYCGTWDSRLSAVVFGGGTKLTVLGQPKANPTVTLFPPSSEELQANKATLVCLISDFYPGAVTVAWKADGSPVKAGVETTKPSKQSNNKYAAKSYLSLTPEQWKSHRSYSCQVTHEGSTVEKTVAPTECS heavy 2: QVQLVESGGGVVQPGRSLRLSCAASGFTFSSFGMHWVRQAPGKGLEWVAVISFDGSIKYSVDSVKGRFTISRDNSKNTLFLQMNSLRAEDTAVYYCARDRLNYYESSGYYHYKYYGMAVWGQGTTVTVSSASTKGPSVFPLAPSSKSTSGGTAALGCLVKDYFPEPVTVSWNSGALTSGVHTFPAVLQSSGLYSLESVVTVPSSSLGTQTYICNVNHKPSNTKVDKKVEPKSCDKTHTCPPCPAPELLGGPSVFLFPPKPKDTLMISRTPEVTCVVVDVSHEDPEVKFNWYVDGVEVHNAKTKPCEEQYGSTYRCVSVLTVLHQDWLNGKEYKCKVSNKALPAPIEKTISKAKGQPREPQVYTLPPSRKKMTKNQVSLTCLVKGFYPSDIAVEWESNGQPENNYKTTPPVLKSDGSFFLYSKLTVDKSRWQQGNVFSCSVMHEALHNHYTQKSLSLSPGK | 79 | 76 |
| iPS:327738 (bispecific antibody, human IgG1, kappa, lambda, N297G) light 1: EIVLTQSPATLSLSPGERATLSCRASQSVGRSLHWYQQKPGQAPRLLIKYASQSLSGIPARFSGSGSGTDFTLTISSLEPEDFAVYYCHQSSRLPFTFGEGTKVDIKRTVAAPSVFIFPPSDEQLKSGTASVVCLLNNFYPREAKVQWKVDNALQSGNSQESVTEQDSKDSTYSLESTLTLSKADYEKHKVYACEVTHQGLSSPVTKSFNRGEC heavy 1: not shown light 2: QSVLTQPPSVSAAPGQKVTISCSGSSSNIGNNYVSWYQQLPGTAPKLLIYDNNKRPSGIPDRFSGSKSGTSATLGITGLQTGDEADYYCGTWDSRLSAVVFGKGTKLTVLGQPKANPTVTLFPPSSEELQANKATLVCLISDFYPGAVTVAWKADGSPVKAGVETTKPSKQSNNKYAAKSYLSLTPEQWKSHRSYSCQVTHEGSTVEKTVAPTECS heavy 2: QVQLVESGGGVVQPGRSLRLSCAASGFTFSSFGMHWVRQAPGKELEWVAVISFDGSIKYSVDSVKGRFTISRDNSKNTLFLQMNSLRAEDTAVYYCARDRLNYYESSGYYHYKYYGMAVWGQGTTVTVSSASTKGPSVFPLAPSSKSTSGGTAALGCLVKDYFPEPVTVSWNSGALTSGVHTFPAVLQSSGLYSLESVVTVPSSSLGTQTYICNVNHKPSNTKVDKKVEPKSCDKTHTCPPCPAPELLGGPSVFLFPPKPKDTLMISRTPEVTCVVVDVSHEDPEVKFNWYVDGVEVHNAKTKPCEEQYGSTYRCVSVLTVLHQDWLNGKEYKCKVSNKALPAPIEKTISKAKGQPREPQVYTLPPSRKEMTKNQVSLTCLVKGFYPSDIAVEWESNGQPENNYKTTPPVLKSDGSFFLYSKLTVDKSRWQQGNVFSCSVMHEALHNHYTQKSLSLSPGK | 85 | 93 |
| iPS:327728 (bispecific antibody, human IgG1, kappa, lambda, N297G) light 1: not shown heavy 1: not shown light 2: QSVLTQPPSVSAAPGQKVTISCSGSSSNIGNNYVSWYQQLPGTAPKLLIYDNNKRPSGIPDRFSGSKSGTSATLAITGLQTGDEADYYCGTWDSRLSAVVFGGGTKLTVLGQPKANPTVTLFPPSSEELQANKATLVCLISDFYPGAVTVAWKADGSPVKAGVETTKPSKQSNNKYAAKSYLSLTPEQWKSHRSYSCQVTHEGSTVEKTVAPTECS heavy 2: QVQLVESGGGVVQPGRSLRLSCAASGFTFSSFGMHWVRQAPGKGLEWVAVISFDGSIKYSVDSVKGRFTISRDNSKNTLFLQMNSLRAEDTAVYYCARDRLNYYDSSGYYHYKYYGMAVWGQGTTVTVSSASTKGPSVFPLAPSSKSTSGGTAALGCLVKDYFPEPVTVSWNSGALTSGVHTFPAVLQSSGLYSLESVVTVPSSSLGTQTYICNVNHKPSNTKVDKKVEPKSCDKTHTCPPCPAPELLGGPSVFLFPPKPKDTLMISRTPEVTCVVVDVSHEDPEVKFNWYVDGVEVHNAKTKPCEEQYGSTYRCVSVLTVLHQDWLNGKEYKCKVSNKALPAPIEKTISKAKGQPREPQVYTLPPSRKKMTKNQVSLTCLVKGFYPSDIAVEWESNGQPENNYKTTPPVLKSDGSFFLYSKLTVDKSRWQQGNVFSCSVMHEALHNHYTQKSLSLSPGK | 80 | 79 |
| iPS:327876 (bispecific antibody, human IgG1, kappa, N297G) light 1: DIQMTQSPSSLSASVGDRITITCRASQSISRYLNWYQQKPGKAPKLLIYAASSLQSGIPSRFSGSGSGTDFTLTINSLQPEDFATYFCQQSYSPPFTFGQGTKVDIKRTVAAPSVFIFPPSDEQLKSGTASVVCLLNNFYPREAKVQWKVDNALQSGNSQESVTEQDSKDSTYSLESTLTLSKADYEKHKVYACEVTHQGLSSPVTKSFNRGEC heavy 1: not shown light 2: EIVLTQSPGTLSLSPGERATLSCRASQSVSSGYLTWYQQKPGQAPRLLIYGASSRATGIPDRFSGSGSGTDFTLTISRLEPEDFAVYYCQQYGNSLSRFGQGTKLEIKRTVAAPSVFIFPPSDEQLKSGTASVVCLLNNFYPREAKVQWKVDNALQSGNSQESVTEQDSKDSTYSLKSTLTLSKADYEKHKVYACEVTHQGLSSPVTKSFNRGEC heavy 2: not shown | 77 | 11 |

Other lines, results leading:

| % inhibition of human CGRPR (human CGRP receptor) [%] | % inhibition of human PAC1 (human PAC1 receptor) [%] | Binder |
| --- | --- | --- |
| 74 | 58 | iPS:327740 (bispecific antibody, human IgG1, kappa, lambda, N297G) light 1: not shown heavy 1: not shown light 2: QSVLTQPPSVSAAPGQKVTISCSGSSSNIGNNYVSWYQQLPGTAPKLLIYDNNKRPSGIPDRFSGSKSGTSATLGITGLQTGDEADYYCGTWDSRLSAVVFGGGTKLTVLGQPKANPTVTLFPPSSEELQANKATLVCLISDFYPGAVTVAWKADGSPVKAGVETTKPSKQSNNKYAAKSYLSLTPEQWKSHRSYSCQVTHEGSTVEKTVAPTECS heavy 2: QVQLVESGGGVVQPGRSLRLSCAASGFTFSSFGMHWVRQAPGKGLEWVAVISFDGSIKYSVDSVKGRFTISRDNSKNTLFLQMNSLRAEDTAVYYCARDRLNYYESSGYYHYKYYGMAVWGQGTTVTVSSASTKGPSVFPLAPSSKSTSGGTAALGCLVKDYFPEPVTVSWNSGALTSGVHTFPAVLQSSGLYSLESVVTVPSSSLGTQTYICNVNHKPSNTKVDKKVEPKSCDKTHTCPPCPAPELLGGPSVFLFPPKPKDTLMISRTPEVTCVVVDVSHEDPEVKFNWYVDGVEVHNAKTKPCEEQYGSTYRCVSVLTVLHQDWLNGKEYKCKVSNKALPAPIEKTISKAKGQPREPQVYTLPPSRKKMTKNQVSLTCLVKGFYPSDIAVEWESNGQPENNYKTTPPVLKSDGSFFLYSKLTVDKSRWQQGNVFSCSVMHEALHNHYTQKSLSLSPGK |
| 83 | 10 | iPS:327875 (bispecific antibody, human IgG1, kappa, N297G) light 1: not shown heavy 1: not shown light 2: EIVLTQSPGTLSLSPGERATLSCRASQSVSSGYLTWYQQKPGQAPRLLIYGASSRATGIPDRFSGSGSGTDFTLTISRLEPEDFAVYYCQQYGNSLSRFGKGTKLEIKRTVAAPSVFIFPPSDEQLKSGTASVVCLLNNFYPREAKVQWKVDNALQSGNSQESVTEQDSKDSTYSLKSTLTLSKADYEKHKVYACEVTHQGLSSPVTKSFNRGEC heavy 2: QVQLVESGGGVVQPGRSLRLSCAASGFTFSSYGMHWVRQAPGKELEWVAVIWYDGSNKYYAESVKGRFIISRDKSKNTLYLQMNSLRAEDTAVYYCARAGGIAAAGLYYYYGMDVWGQGTTVTVSSASTKGPSVFPLAPSSKSTSGGTAALGCLVKDYFPEPVTVSWNSGALTSGVHTFPAVLQSSGLYSLESVVTVPSSSLGTQTYICNVNHKPSNTKVDKKVEPKSCDKTHTCPPCPAPELLGGPSVFLFPPKPKDTLMISRTPEVTCVVVDVSHEDPEVKFNWYVDGVEVHNAKTKPCEEQYGSTYRCVSVLTVLHQDWLNGKEYKCKVSNKALPAPIEKTISKAKGQPREPQVYTLPPSRKEMTKNQVSLTCLVKGFYPSDIAVEWESNGQPENNYKTTPPVLKSDGSFFLYSKLTVDKSRWQQGNVFSCSVMHEALHNHYTQKSLSLSPGK |
